Reference: US20110053865A1 (Ablynx, published 2011)
Where two headings read alike, the source gives them in different places.

Key:
[1] = molecular target: T1, recombinant human IL-23 (p19/p40) (human, UniProt Q9NPF7 20-189; P29460 23-328); experiment: 'potency assay', not specified (probably the inhibition ELISA of Example 34)
T1 construct: Bought heterodimer (R&D Systems or eBioscience); biotinylated in the alpha-screens; also called hIL-23
T1 sequence (looked up) 1: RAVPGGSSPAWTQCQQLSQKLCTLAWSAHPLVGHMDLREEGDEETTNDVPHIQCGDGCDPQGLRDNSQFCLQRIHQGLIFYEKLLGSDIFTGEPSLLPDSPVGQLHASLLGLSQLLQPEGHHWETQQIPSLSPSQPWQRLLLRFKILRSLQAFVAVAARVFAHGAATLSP
T1 sequence (looked up) 2: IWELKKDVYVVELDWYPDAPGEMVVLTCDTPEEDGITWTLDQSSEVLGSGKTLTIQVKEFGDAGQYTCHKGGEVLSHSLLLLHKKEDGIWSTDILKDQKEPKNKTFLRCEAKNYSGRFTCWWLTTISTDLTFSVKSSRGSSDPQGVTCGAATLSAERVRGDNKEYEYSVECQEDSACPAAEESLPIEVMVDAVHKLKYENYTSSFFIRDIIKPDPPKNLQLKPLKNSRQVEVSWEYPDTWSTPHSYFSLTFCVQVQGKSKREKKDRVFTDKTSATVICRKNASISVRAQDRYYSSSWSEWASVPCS

[2] = molecular target: T1, recombinant human IL-23 (p19/p40); experiment: cell-based or functional assay
[3] = molecular target: T1, recombinant human IL-23 (p19/p40); experiment: SPR Biacore, hIL-23 on chip
Protocol: Nanobody binding was assessed at one concentration (100 nM). Each Nanobody was injected for 4 minutes at a flow rate of 45 μl/min to allow binding to chip-bound antigen. Next, binding buffer without Nanobody was sent over the chip at the same flow rate to allow spontaneous dissociation of bound Nanobody.

[4] = molecular target: T1, recombinant human IL-23 (p19/p40); experiment: cell-based or functional assay; remark: listed apart in the source
cynomolgus IL-23 [5] = molecular target: cynomolgus IL-23 (cynomolgus); experiment: cell-based or functional assay
[6] = molecular target: T1, recombinant human IL-23 (p19/p40); experiment: comp alpha-screen hIL-23
[7] = molecular target: T1, recombinant human IL-23 (p19/p40); experiment: SPR Biacore, hIL-23 on chip, several concentrations
cynomolgus IL-23 [8] = molecular target: T2, cynomolgus IL-23 (cynomolgus); experiment: SPR Biacore, cyno IL-23 on chip
T2 construct: also called cyno IL-23; cIL-23

[9] = molecular target: T1, recombinant human IL-23 (p19/p40); experiment: cell-based or functional assay; remark: listed apart in the source
cynomolgus IL-23 [10] = molecular target: T2, cynomolgus IL-23; experiment: cell-based or functional assay; remark: listed apart in the source
cynomolgus IL-23 [11] = molecular target: T2, cynomolgus IL-23; experiment: alpha-screen, cyno IL-23/IL-23R-Fc
Protocol: (§1) Human IL-23R-Fc chimera and hIL12Rbeta1-Fc chimera (R&D Systems, Minneapolis, Minn., US) were coupled to acceptor beads according to manufacturer instructions (Perkin Elmer, Waltham, Mass., US).
(§2) To this mixture, the IL-23R acceptor beads and the streptavidin donor beads were added and further incubated for 1 hour at RT.

[12] = molecular target: T1, recombinant human IL-23 (p19/p40); experiment: alpha-screen, hIL-23/IL-23R-Fc
Protocol: as §1, §2

[13] = molecular target: T1, recombinant human IL-23 (p19/p40); experiment: cell-based or functional assay; remark: listed apart in the source
[14] = molecular target: T1, recombinant human IL-23 (p19/p40); experiment: cell-based or functional assay; remark: listed apart in the source
cynomolgus IL-23 [15] = molecular target: T2, cynomolgus IL-23; experiment: cell-based or functional assay; remark: listed apart in the source
[16] = molecular target: T1, recombinant human IL-23 (p19/p40); experiment: inhibition ELISA, hIL-23/hIL-23R-Fc
Protocol: (§3) Visualisation was performed with enhanced soluble 3,3′,5,5′-tetramethylbenzidine (esTMB) colouring reagent, after which the coloring reaction was stopped with 1N HCl. The absorbance was measured at 450 nm.

[17] = molecular target: T1, recombinant human IL-23 (p19/p40); experiment: inhibition ELISA, hIL-23/hIL-23R-Fc; remark: listed apart in the source
Protocol: as §3

Binder	koff [3] [s⁻¹]	koff (cynomolgus IL-23 [8]) [s⁻¹]	IC50, mouse splenocyte assay (mIL-22) [9] [pM]	IC50, mouse splenocyte assay (mIL-22) (cynomolgus IL-23 [10]) [pM]	IC50 (cynomolgus IL-23 [11]) [pM]	IC50 [12] [pM]	IC50, BA/F3 proliferation assay, 76 pM hIL-23 [13] [pM]	IC50, splenocyte assay, 19 pM hIL-23 [14] [pM]	IC50, splenocyte assay, 3.8 pM cIL-23 (cynomolgus IL-23 [15]) [pM]	IC50 [16] [pM]	also measured
P23IL37D5 (VHH, p19+ Nanobody; c-myc, His6-tagged; also called PIL2337D5) VHH: EVQLVESGGGLVQPGGSLRLSCAASGFTLDYLAIGWFRQAPGKEREGVSCVSSSGQYTYYADSVKGRFTISRDNAESTVYLQMNSLKPEDTAVYYCATDPECYRVRGYYNGEYDYWGQGTQVTVSS	0.00019	0.00051	17	288	320	110					IC50 [1]: 38.4 pM; IC50, BAF3 proliferation assay, 76 pM hIL-23 [2]: 13 pM; IC50, splenocyte assay, 19 pM hIL-23 [4]: 24 pM; IC50, splenocyte assay, 3.8 pM cIL-23 (cynomolgus IL-23 [5]): 212 pM; IC50 [6]: 176 pM; Kd [7]: 570 pM; koff [7]: 0.00018 s⁻¹
P23IL36A4 (VHH, p19+ Nanobody; c-myc, His6-tagged; also called P23IL 36A4 (=36G2); 36G2) VHH: EVQLVESGGGLVQAGGSLRLSCVASERTFSSSAMGWFRQAPGKEREFVAAIGWSGGGFIHYGDSVKGRFTISADNGKNTVYLQMNSLKPEDTAVYYCAADSRLRGIALLKGSYDYRGQGTQVTVSS	0.0009	0.0012	3120	11000	470	1000					
P23IL119A3V16-35GS-81G2V11-HSA (bispecific antibody, also called P23IL0065; 23IL0065; not shown: full length human serum albumin fused directly to the C-terminus) EVQLLESGGGLVQPGGSLRLSCAASGRIFSLPASGNIFNLLTIAWYRQAPGKGRELVATINSGSRTYYADSVKGRFTISRDNSKKTLYLQMNSLRPEDTAVYYCQTSGSGSPNFWGQGTLVTVSSGGGGSGGGGSGGGGSGGGGSGGGGSGGGGSGGGGSEVQLLESGGGLVQPGGSLRLSCAASGLPFSTKSMGWFRQAPGKGREFVSRISPGGTSRYYGDFVKGRFTISRDNSKNTLYLQMNSLRAEDTAVYYCASGERSTYIGSNYYRTNEYDYWGQGTLVTVSS							125	4.6	6.7	38	
P23IL119A3V16-35GS-81G2V11-GGGC-PEG40 linear (bispecific antibody, linear mPEG40 (maleimide) on the C-terminal Cys of GGGC, also called P23IL0063; 23IL0063) EVQLLESGGGLVQPGGSLRLSCAASGRIFSLPASGNIFNLLTIAWYRQAPGKGRELVATINSGSRTYYADSVKGRFTISRDNSKKTLYLQMNSLRPEDTAVYYCQTSGSGSPNFWGQGTLVTVSSGGGGSGGGGSGGGGSGGGGSGGGGSGGGGSGGGGSEVQLLESGGGLVQPGGSLRLSCAASGLPFSTKSMGWFRQAPGKGREFVSRISPGGTSRYYGDFVKGRFTISRDNSKNTLYLQMNSLRAEDTAVYYCASGERSTYIGSNYYRTNEYDYWGQGTLVTVSSGGGC							71	2.7	13.1	25	
23IL0038 (PEG40 form not stated) (bispecific antibody, PEG40 on the C-terminal Cys of GGGC; branched or linear not stated for this assay, also called P23IL0038; 119A3-81G2-PEG40) EVQLVESGGGLVQAGGSLRLSCAASGRIFSLPASGNIFNLLTIAWHRQAPGMQRELVATINSGSRTNYADSVKGRFTISRDNAQKTVYLQMNNLKPEDTAVYYCQTSGSGSPNFWGQGTQVTVSSGGGGSGGGGSGGGGSGGGGSGGGGSGGGGSGGGGSEVQLVESGGGLVQPGGSLRLSCIASGLPFSTKSMGWFRQAPGKEREFVARISPGGTSRYYGDFVKGRFAISRDNAKNTTWLQMNSLKAEDTAVYYCASGERSTYIGSNYYRTNEYDYWGTGTQVTVSSGGGC											IC50 [17]: 32 pM
